# Measurements taken from patent publication US12156889B2, “Methods of administering mesenchymal stem cells activated by cytokines for enhancing immunosuppression” (Rutgers, The State University of New Jersey, priority 2012, dated 2024).
# B1: IL-17A: recombinant mouse interleukin 17A (protein)
# chain: AAIIPQSSACPNTEAKDFLQNVKVNLKVFNSLGAKVSSRRPSDYLNRSTSPWTLHRNEDPDRYPSVIWEAQCRHQRCVNAEGKLDHHMNSVLIQQEILVLKREPESCPFTFRVEKMLVGVGCTCVASIVRQAA
# Experiments:
# [1] = tested on: T cell hybridoma A1.1 cells; experiment: T cell hybridoma A1.1 proliferation in co-culture with MSCs; format: cell-based, mouse
# Protocol: FIG. 7. […] MSC cells and T-cell hybridoma A1.1 cell line were co-cultured at a ratio of 1:20. The co-cultures were supplemented with IFNγ+ TNF α, or IL-17A+IFNγ+TNFα. Cell proliferation was measured by the cell density indicated by O.D. 570 nm.
# FIGS. 9A, 9B, 9C, 9D, 9E, 9F and 9G. (FIG. 9A). Cloned MSCs were first treated with the indicated combinations of recombinant cytokines IFNγ, TNFα, IL-17A (2 ng/ml each) for 12 hr, then cocultured with CD4^+ T cell blasts at a 1:20 ratio (MSC:T cells), and proliferation was assessed by 3H-thymidine incorporation after an additional 12 hr. (FIG. 9B). The mRNA expression of IL-17 receptor family members in MSCs or Raw 264.7 (Macrophages) were examined by RT-PCR. NC: No RT. (FIG. 9C). Surface expression of IL-17RA was detected by immunofluoresence or flow cytometry in cloned MSCs. (FIGS. 9D and 9E). MSCs were first treated with IFNγ and TNFα with or without IL-17A (10 ng/ml), IFNγ and TNFα were supplemented at different cytokine concentrations, for 12 hr, and then cocultured with CD4^+ T cell blasts (FIG. 9D) or T cell hybridoma A1.1 cells (FIG. 9E) at a ratio of 1:20 for 12 hr. T cell proliferation was measured by 3H-Tdr incorporation. (FIG. 9F). MSCs were first treated with IFNγ and TNFα (2 ng/ml) with graded concentrations of IL-17A, for 12 hr, and then cocultured with T cell hybridoma A1.1 cells at a ratio of 1:10 for 12 hr. T cell proliferation was measured by 3H-thymidine incorporation. (FIG. 9G). MSCs were cocultured with fresh C57BL/6 splenocytes plus anti-CD3, anti-CD28, and antibodies against IL-17A, at a 1:20 or 1:40 ratio (MSCs:splenocytes), for 48 hr, and then cell proliferation was assessed by 3H-thymidine incorporation. Proliferation values represent means±SEM of three wells from a representative of three experiments.
# FIGS. 11A, 11B, 11C and 11D. (FIG. 11A) MSCs with Act1 knockdown or control were treated with IL-17A for different time and the phosphorylation levels of IκBα, ERK, p65, JNK were assessed by Western Blot. (FIG. 11B) MSCs with Act1 knockdown or control were treated with IFNγ and TNFα with or without IL-17A (all cytokines supplemented at 5 ng/ml) the protein levels of iNOS and Act1 were assessed by Western Blot. (FIG. 11C) MSCs (Act1 knockdown or control) were treated with different cytokines 12 hr, and iNOS expression was measured by quantitative RT-PCR. mRNA expression values are means±SEM. (FIG. 11D) MSCs (Act1 knockdown or control) were first treated with IFNγ and TNFα with or without IL-17A (all cytokines supplemented at 5 ng/ml) for 12 hr, and then cocultured with T cell hybridoma A1.1 cells at a ratio of 1:10 for 12 hr. T cell proliferation was measured by 3H-Tdr incorporation, taking the proliferation level of A1.1 alone as 100%.
# FIGS. 14A and 14B. (FIG. 14A). WT MSCs or auf1^−/− MSCs were first treated with IFNγ and TNFα with or without IL-17A (all cytokines supplemented at 5 ng/ml) for 12 hr, and then cocultured with T cell hybridoma A1.1 cells at a ratio of 1:10 for 12 hr. T cell proliferation was measured by 3H-Tdr incorporation, taking the proliferation level of A1.1 alone as 100%. (FIG. 14B). WT MSCs or auf1^−/− MSCs were first treated with IFNγ and TNFα with or without IL-17A (10 ng/ml), IFNγ and TNFα were supplemented at different cytokine concentrations, for 12 hr, and then cocultured with T cell hybridoma A1.1 cells at a ratio of 1:10 for 12 hr. T cell proliferation was measured by 3H-Tdr incorporation, taking the proliferation level of A1.1 alone as 100%. […]
# [2] = tested on: MSCs; experiment: Messenger RNA decay assay in MSCs after actinomycin D; format: cell-based, mouse
# Protocol: FIGS. 8A and 8B. IL-17A prevented the decay of iNOS mRNA, (FIG. 8A) the iNOS mRNA stability was measured at different time points after actinomycin D treatment in IFNγ+TNFα and IFNγ+TNFα+IL-17A treatment groups. (FIG. 8B) iNOS expression enhancing effect of IL-17A at different times after IFNγ and TNFα treatment.
# FIGS. 13A and 13B. Wild-type (FIG. 13A) or […] (FIG. 13B) were treated with IFNγ and TNFα, with or without IL-17A (all cytokines supplemented at 10 ng/ml), for 6 hr, and then actinomycin D (5 μg/ml) was added to stop transcription. At the indicated time points, mRNA levels were assayed by quantitative RT-PCR, taking the expression level at the time of actinomycin.D addition as 100%. mRNA expression values are means±SD of three wells from a representative of three independent experiments.
# Messenger RNA decay assays-Messenger RNA decay assays were performed essentially. MSCs were incubated with cytokine combinations for 6 hr. Actinomycin D (Act.D) was added into the medium at a final concentration of 5 μg/ml to stop transcription. At various time points after addition of Act.D, cells were harvested for extraction of total RNA.
# Levels of iNOS, CXCL1, CCL2, CXCL10 and IL-6 mRNAs were measured at each time point by quantitative RT-PCR and normalized to levels of β-actin mRNA. Percentages of mRNA remaining for each time point were plotted versus time after Act.D addition. First order decay constants, k, were determined by nonlinear regression. The associated mRNA half-lives, t1/2, were calculated with the equation t1/2=ln2/k.
molecule,measurement,setting,value
B1,enhancement of immunosuppression in absence of Act1,"[1]; 5 ng/ml, A1.1 1:10",not seen
same,IL-17A concentration sufficient to elicit a dramatic decrease in T cell proliferation,"[1]; IFNγ and TNFα 2 ng/ml each, 12 hr, A1.1 1:10",0.5 ng/mL
same,T-cell proliferation in MSC-T cell co-culture,"[1]; MSC:A1.1 1:20, O.D. 570 nm",enhanced the suppression
same,immunosuppressive activity of wild-type MSCs,"[1]; with IFNγ+TNFα, A1.1 1:10",increased the immunosuppressive activity
same,immunosuppressive effect of auf1−/− MSCs,"[1]; with IFNγ+TNFα, A1.1 1:10",did not further enhance
same,half-lives of iNOS and IL-6 mRNAs in AUF1 knockout MSCs,[2]; added to IFNγ+TNFα,no effect
same,stabilization of CXCL1 mRNA in AUF1 knockout MSCs,[2]; added to IFNγ+TNFα,at least twofold
same,"stabilization of iNOS, IL-6, and CXCL1 mRNAs in wild-type MSCs",[2]; added to IFNγ+TNFα,twofold stabilization
same,iNOS mRNA stability,"[2]; supplement to IFNγ+TNFα, within the time points tested",completely protected
